# Reference: paper PMC10397247
# Like-named read-outs stand apart in the source and are kept apart here.
# Columns and labels:
# Experiment in all cases: two-hybrid library CCmax;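 further: natural log of median RNA to DNA barcode read ratio; higher means stronger binding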
# 4H2865-AA = target: T1, 4H2865-AA; conditions: mean of both orientations
# T1 chain: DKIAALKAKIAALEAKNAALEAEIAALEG
# 4H2907-AA = target: T2, 4H2907-AA; conditions: mean of both orientations
# T2 chain: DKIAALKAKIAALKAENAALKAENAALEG
# 4H485-AA = target: T3, 4H485-AA; conditions: mean of both orientations
# T3 chain: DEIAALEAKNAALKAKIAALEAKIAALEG
# 4H930-AA = target: T4, 4H930-AA; conditions: mean of both orientations
# T4 chain: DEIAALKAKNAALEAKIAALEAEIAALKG
# 4H2553-AA = target: T5, 4H2553-AA; conditions: mean of both orientations
# T5 chain: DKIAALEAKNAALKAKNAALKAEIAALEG
# 4H2620-AA = target: T6, 4H2620-AA; conditions: mean of both orientations
# T6 chain: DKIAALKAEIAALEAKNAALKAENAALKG
# 4H1385-AA = target: T7, 4H1385-AA
# T7 chain: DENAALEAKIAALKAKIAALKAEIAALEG
# 4H3162-AA = target: T8, 4H3162-AA; conditions: mean of both orientations
# T8 chain: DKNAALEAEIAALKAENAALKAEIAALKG
# 4H1594-AA = target: T9, 4H1594-AA; conditions: mean of both orientations
# T9 chain: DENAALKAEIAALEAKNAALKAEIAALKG
# 4H1388-AA = target: T10, 4H1388-AA; conditions: mean of both orientations
# T10 chain: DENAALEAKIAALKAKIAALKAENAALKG
# 4H2648-AA = target: T11, 4H2648-AA; conditions: mean of both orientations
# T11 chain: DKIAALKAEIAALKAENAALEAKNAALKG
# 4H3753-AA = target: T12, 4H3753-AA; conditions: mean of both orientations
# T12 chain: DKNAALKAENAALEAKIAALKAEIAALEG
# 4H2389-AA = target: T13, 4H2389-AA; conditions: mean of both orientations
# T13 chain: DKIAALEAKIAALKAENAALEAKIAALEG
# 4H340-AA = target: T14, 4H340-AA; conditions: mean of both orientations
# T14 chain: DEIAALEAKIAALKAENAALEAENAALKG
# 4H3588-AA = target: T15, 4H3588-AA
# T15 chain: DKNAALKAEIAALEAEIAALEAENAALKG
# 4H174-AA = target: T16, 4H174-AA; conditions: mean of both orientations
# T16 chain: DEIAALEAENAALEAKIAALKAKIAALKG
# 4H1864-AA = target: T17, 4H1864-AA; conditions: mean of both orientations
# T17 chain: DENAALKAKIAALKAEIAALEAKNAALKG
# 4H891-AA = target: T18, 4H891-AA; conditions: mean of both orientations
# T18 chain: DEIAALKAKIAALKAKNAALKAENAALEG
# 4H1579-AA = target: T19, 4H1579-AA; conditions: mean of both orientations
# T19 chain: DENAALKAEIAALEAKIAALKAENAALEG
# 4H1401-AA = target: T20, 4H1401-AA; conditions: mean of both orientations
# T20 chain: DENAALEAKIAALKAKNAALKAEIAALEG
binder,measurement,setting,value
DENAALEAKIAALEAENAALKAKIAALKG [4H1310-AA],interaction score,4H2865-AA,1.76
same,interaction score,4H2907-AA,1.34
same,interaction score,4H485-AA,-1.08
same,interaction score,4H930-AA,-1.4
same,interaction score,4H2553-AA,-1.34
same,interaction score,4H2620-AA,-1.03
same,interaction score,4H1385-AA; mean of both orientations,-1.04
same,interaction score,4H3162-AA,-0.508
same,interaction score,4H1594-AA,1.18
same,interaction score,4H1388-AA,-1.2
same,interaction score,4H2648-AA,-1.18
same,interaction score,4H3753-AA,-1.37
same,interaction score,4H2389-AA,1.17
same,interaction score,4H340-AA,-1.45
same,interaction score,4H3588-AA; mean of both orientations,-1.22
same,interaction score,4H174-AA,0.83
same,interaction score,4H1864-AA,-1.48
same,interaction score,4H891-AA,-1.69
same,interaction score,4H1579-AA,-1.2
same,interaction score,4H1401-AA,1.11
DENAALEAEIAALKAKNAALEAKIAALKG [4H1142-AA],interaction score,4H2865-AA,1.33
same,interaction score,4H2907-AA,-1.24
same,interaction score,4H485-AA,-0.612
same,interaction score,4H930-AA,-1.1
same,interaction score,4H2553-AA,-1.85
same,interaction score,4H2620-AA,-1.34
same,interaction score,4H1385-AA,-1.1
same,interaction score,4H3162-AA,-1.46
same,interaction score,4H1594-AA,0.842
same,interaction score,4H1388-AA,-1.65
same,interaction score,4H2648-AA,-0.52
same,interaction score,4H3753-AA,-2.1
same,interaction score,4H2389-AA,-0.327
same,interaction score,4H340-AA,-1.35
same,interaction score,4H3588-AA,-1.17
same,interaction score,4H174-AA,-0.4
same,interaction score,4H1864-AA,-1.38
same,interaction score,4H891-AA,-1.23
same,interaction score,4H1579-AA,-1.39
same,interaction score,4H1401-AA,0.545
